The results in this text go back to patent publication US6420157B1, “Zymogen activation system” (Ortho-McNeil Pharmaceutical, Inc., priority 1999, dated 2002).

Holding throughout (type): biochemical
Common to all, as to settings: EK-activated protease; substrate 500 uM; pH 7.8; 37° C.; 120 minutes

The nature of data set [1]: Chromogenic amidolytic assay, release of pNA from H-D-Pro-HHT-Arg-pNA. The protocol: (§1) Cells were lysed on ice in 20 mM Tris (pH7.4), 150 mM NaCl, 1% Triton X-100, 1 mM EDTA, 1 mM EGTA, 1 mM PMSF, leupeptin (1 μg/ml), and pepstatin (1 μg/ml). Cell lysates were mixed with anti-FLAG M2 affinity gel (Eastman Kodak Co., New Haven, Conn.) and bound at 4° C. for 3 hours with gentle rotation. The zymogen-bound resin was washed 3 times with TBS buffer (50 mM Tris-HCl, 150 mM NaCl at a final pH of 7.5), and eluted by competition with FLAG peptide (100 μg/ml) in TBS buffer. The eluted zymogen was dialyzed overnight against TBS in Spectra/Por membrane (MWCO: 12,000-14,000) (Spectra Medical Industries, Inc., Huston, Tex.). […] Eluted protein concentration was determined by a Micro BCA Kit (Pierce, Rockford, Ill.) using bovine serum albumin as a standard. Amidolytic activities of the activated protease was monitored by release of para-nitroaniline (pNA) from the synthetic substrates indicated in Table 2. […] Release of pNA was measured over 120 minutes at 37° C. on a micro-plate reader (Molecular Devices, Menlo Park, Calif.) with a 405 nm absorbance filter. The initial reaction rates (Vmax, mOD/min) were determined from plots of absorbance versus time using Softmax (Molecular Devices, Menlo Park, Calif.). […] No measurable chromogenic amidolytic activity was detected with the purified unactivated zymogens. […]

Data set [2] in a line: Chromogenic amidolytic assay, release of pNA from H-D-Val-Leu-Lys-pNA. The protocol: as §1
Data set [3] is described as follows: Chromogenic amidolytic assay, release of pNA from H-DL-Val-Leu-Arg-pNA. As to the method:
as §1

Data set [4] can be described thus: Chromogenic amidolytic assay, release of pNA from H-D-Lys(CBO)-Pro-Arg-pNA. As to the method:
as §1

B1: PFEK-MH2-6XHIS: catalytic domain of human protease MH2 in the PFEK1-6XHIS-TAG activation construct (SEQ.ID.NO.:54), EK-activated (protein)
chain: MDSKGSSQKSRLLLLLVVSNLLLCQGVVSDYKDDDDVDAAALAAPFDDDDKIVGGYNCLEPHSQPWQAALVMENELFCSGVLVHPQWVLSAAHCFQNSYTIGLGLHSLEADQEPGSQMVEASLSVRHPEYNRPLLANDLMLIKLDESVSESDTIRSISIASQCPTAGNSCLVSGWGLLANGRMPTVLQCVNVSVVSEEVCSKLYDPLYHPSMFCAGGGHDQKDSCNGDSGGPLICNGYLQGLVSFGKAPCGQVGVPGVYTNLCKFTEWIEKTVQASSRHHHHHH
B1: the “specific activity, H-D-Pro-HHT-Arg-pNA” value in data set [1] was 0.052 nmole pNA produced /min/ug protein. Besides, the “specific activity, H-D-Val-Leu-Lys-pNA” value in data set [2] is recorded as 0.121 nmole pNA produced /min/ug protein. For the same molecule, the “specific activity, H-DL-Val-Leu-Arg-pNA” value in data set [3] was 0.058 nmole pNA produced /min/ug protein. Also, in data set [4], the “specific activity, H-D-Lys(CBO)-Pro-Arg-pNA” value is reported as 0.893 nmole pNA produced /min/ug protein.
